The values that follow are results of earlier work, collected in publication PMC4440832.

The target in one data set is BMP6 (Homo sapiens) (UniProt P22004). Description: SPR.
Data set [1] concerns the target BMP2 (Homo sapiens) (UniProt P12643). Description: SPR.
Data set [2] has as its target BMP4 (Homo sapiens) (UniProt P12644). The experiment in a line: radioligand binding.
Data set [3] concerns the target BMP2 (Homo sapiens) (UniProt P12643). The experiment in a line: radioligand binding.
For data set [4], the target named is BMP4 (Homo sapiens) (UniProt P12644). The experiment in a line: SPR.
Sequence of BMP4 (Homo sapiens) (P12644 293-408): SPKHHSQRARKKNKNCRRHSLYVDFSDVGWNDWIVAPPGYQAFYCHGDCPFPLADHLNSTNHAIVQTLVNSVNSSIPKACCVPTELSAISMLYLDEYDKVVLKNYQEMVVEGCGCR
A further data set has as its target BMP5 (Homo sapiens) (UniProt P22003). Description: SPR.
For a further data set, the target named is BMP7 (Homo sapiens) (UniProt P18075). The experiment in a line: SPR.
Sequence of BMP7 (Homo sapiens) (P18075 293-431): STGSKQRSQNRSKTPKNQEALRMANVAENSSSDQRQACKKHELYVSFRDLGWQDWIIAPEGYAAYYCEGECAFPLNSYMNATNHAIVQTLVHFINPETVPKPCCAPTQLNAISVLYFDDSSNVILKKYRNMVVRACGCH
Another data set addresses netrin (UniProt O95631).

Sequence of HJV (Q6ZVN8 36-400): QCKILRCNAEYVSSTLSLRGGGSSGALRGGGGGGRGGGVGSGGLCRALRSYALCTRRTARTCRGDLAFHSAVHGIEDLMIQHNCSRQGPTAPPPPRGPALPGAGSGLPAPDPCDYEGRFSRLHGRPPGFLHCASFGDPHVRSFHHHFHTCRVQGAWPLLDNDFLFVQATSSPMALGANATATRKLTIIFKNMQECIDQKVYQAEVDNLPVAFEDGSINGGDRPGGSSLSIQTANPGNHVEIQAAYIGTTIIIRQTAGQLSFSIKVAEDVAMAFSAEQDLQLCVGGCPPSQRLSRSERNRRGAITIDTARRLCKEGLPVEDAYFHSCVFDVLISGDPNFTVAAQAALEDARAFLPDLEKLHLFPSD
Sequence of BMP2 (Homo sapiens) (P12643 283-396): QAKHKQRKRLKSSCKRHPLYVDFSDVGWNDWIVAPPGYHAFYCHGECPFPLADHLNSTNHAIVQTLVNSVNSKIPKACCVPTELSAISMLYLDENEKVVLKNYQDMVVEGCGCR
Sequence of RGMa.Fc ECD (Q6PCX7 48-427): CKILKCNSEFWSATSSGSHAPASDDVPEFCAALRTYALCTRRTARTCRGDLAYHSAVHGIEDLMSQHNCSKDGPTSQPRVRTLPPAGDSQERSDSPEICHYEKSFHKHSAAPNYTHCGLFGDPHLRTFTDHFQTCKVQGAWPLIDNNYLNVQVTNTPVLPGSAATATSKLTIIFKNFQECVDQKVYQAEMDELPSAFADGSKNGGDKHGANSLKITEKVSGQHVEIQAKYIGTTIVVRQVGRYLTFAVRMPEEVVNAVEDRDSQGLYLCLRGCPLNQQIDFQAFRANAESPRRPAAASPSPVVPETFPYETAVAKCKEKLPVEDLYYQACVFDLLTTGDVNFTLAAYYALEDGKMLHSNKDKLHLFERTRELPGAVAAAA
Sequence of RGMb (Q6NW40 46-413): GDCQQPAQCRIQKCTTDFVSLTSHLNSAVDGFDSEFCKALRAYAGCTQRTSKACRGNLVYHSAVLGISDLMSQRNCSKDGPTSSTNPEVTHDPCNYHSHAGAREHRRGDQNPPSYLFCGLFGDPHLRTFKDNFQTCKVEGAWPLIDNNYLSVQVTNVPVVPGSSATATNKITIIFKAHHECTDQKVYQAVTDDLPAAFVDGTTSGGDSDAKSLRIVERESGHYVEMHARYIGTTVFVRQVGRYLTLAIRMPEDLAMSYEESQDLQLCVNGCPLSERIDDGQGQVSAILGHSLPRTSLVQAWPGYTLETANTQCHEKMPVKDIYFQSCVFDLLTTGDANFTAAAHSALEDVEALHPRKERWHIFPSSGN
Sequence of BMP6 (Homo sapiens) (P22004 375-513): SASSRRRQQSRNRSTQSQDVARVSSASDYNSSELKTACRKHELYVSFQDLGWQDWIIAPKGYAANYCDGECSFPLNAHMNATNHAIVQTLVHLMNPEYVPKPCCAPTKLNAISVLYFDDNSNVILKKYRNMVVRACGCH
Sequence of RGMa (Q96B86 48-424): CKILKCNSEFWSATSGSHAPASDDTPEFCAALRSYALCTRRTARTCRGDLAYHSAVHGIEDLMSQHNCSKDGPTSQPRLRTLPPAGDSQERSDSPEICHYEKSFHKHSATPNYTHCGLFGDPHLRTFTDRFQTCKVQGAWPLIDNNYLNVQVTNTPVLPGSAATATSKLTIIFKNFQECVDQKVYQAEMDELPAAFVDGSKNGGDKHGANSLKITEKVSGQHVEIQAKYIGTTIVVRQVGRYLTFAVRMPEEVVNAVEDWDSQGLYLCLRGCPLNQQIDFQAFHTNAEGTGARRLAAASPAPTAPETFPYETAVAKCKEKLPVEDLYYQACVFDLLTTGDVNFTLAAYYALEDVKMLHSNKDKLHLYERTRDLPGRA
Sequence of RGMb.Fc ECD (Q7TQ33 49-415): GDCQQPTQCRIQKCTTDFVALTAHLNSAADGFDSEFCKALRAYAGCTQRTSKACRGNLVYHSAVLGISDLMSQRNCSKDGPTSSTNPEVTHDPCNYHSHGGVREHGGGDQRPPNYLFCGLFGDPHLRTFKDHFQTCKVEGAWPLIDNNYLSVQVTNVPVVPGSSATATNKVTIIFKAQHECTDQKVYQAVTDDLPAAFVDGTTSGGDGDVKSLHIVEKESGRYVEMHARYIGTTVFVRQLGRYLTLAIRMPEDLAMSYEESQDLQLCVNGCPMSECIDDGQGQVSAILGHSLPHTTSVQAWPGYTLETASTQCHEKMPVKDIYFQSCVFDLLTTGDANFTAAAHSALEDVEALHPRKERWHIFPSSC
Sequence of neogenin (Q92859 34-1105): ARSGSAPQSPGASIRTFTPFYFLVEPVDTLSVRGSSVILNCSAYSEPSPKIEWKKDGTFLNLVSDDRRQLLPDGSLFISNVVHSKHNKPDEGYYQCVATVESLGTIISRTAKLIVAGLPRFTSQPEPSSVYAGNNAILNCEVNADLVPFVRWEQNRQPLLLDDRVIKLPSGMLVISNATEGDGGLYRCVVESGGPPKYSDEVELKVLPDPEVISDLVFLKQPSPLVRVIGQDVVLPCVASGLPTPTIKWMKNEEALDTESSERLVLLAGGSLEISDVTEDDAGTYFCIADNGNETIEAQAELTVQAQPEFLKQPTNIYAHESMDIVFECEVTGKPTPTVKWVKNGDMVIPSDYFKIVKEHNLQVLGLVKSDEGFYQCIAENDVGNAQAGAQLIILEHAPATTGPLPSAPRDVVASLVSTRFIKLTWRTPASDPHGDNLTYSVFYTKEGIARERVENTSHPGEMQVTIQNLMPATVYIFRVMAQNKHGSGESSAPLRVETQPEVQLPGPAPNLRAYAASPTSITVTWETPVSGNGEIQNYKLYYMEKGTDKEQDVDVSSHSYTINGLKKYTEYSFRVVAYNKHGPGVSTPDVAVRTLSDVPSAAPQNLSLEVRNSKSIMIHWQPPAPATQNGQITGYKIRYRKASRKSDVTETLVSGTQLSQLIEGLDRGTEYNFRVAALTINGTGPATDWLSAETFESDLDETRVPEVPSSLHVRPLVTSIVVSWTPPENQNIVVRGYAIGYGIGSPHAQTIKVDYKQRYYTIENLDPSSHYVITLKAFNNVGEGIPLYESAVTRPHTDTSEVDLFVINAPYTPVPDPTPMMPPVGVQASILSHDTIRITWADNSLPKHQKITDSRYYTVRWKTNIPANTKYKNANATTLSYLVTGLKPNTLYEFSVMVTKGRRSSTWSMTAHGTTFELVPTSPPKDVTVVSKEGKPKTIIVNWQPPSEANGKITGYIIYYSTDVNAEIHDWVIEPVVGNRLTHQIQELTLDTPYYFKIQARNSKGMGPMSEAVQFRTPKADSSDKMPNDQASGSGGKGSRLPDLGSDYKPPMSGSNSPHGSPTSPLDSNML
Sequence of BMP5 (Homo sapiens) (P22003 317-454): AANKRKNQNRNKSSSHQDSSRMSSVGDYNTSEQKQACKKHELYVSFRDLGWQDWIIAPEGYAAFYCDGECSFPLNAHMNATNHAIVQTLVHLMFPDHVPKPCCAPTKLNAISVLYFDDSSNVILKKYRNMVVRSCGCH

As for RGMa (from UniProt Q96B86), the Kd is 55 nM with BMP6 (Homo sapiens) and 22 nM with BMP2 (Homo sapiens) [1].
On to RGMa.Fc ECD (from UniProt Q6PCX7), for which the Kd is 1.4 nM with BMP4 (Homo sapiens) [2], 2.4 nM with BMP2 (Homo sapiens) [3] and 2.46 nM in the data set with BMP2 (Homo sapiens) [1].
For the substance RGMb (from UniProt Q6NW40), the Kd with BMP6 (Homo sapiens) was 28 nM; with BMP4 (Homo sapiens) [4] it was 2.6 nM; with BMP2 (Homo sapiens) [1], 5.5 nM.
With HJV (from UniProt Q6ZVN8), the Kd with BMP5 (Homo sapiens) was 17 nM; in the data set with BMP7 (Homo sapiens), 20 nM; with BMP6 (Homo sapiens) it was 8.1 nM.
neogenin (from UniProt Q92859): in the data set with netrin, the dissociation constant Kd was 2 nM.
Consider RGMb.Fc ECD (from UniProt Q7TQ33), for which the Kd in the data set with BMP2 (Homo sapiens) [3] was 1.5 nM.
